From patent publication US20150238626A1, “RECEPTOR LIGAND LINKED CYTOTOXIC MOLECULES” (ONTOCHEM GMBH, priority 2012, published 2015)

Assays:
[1] = target: human Y2 receptor C-terminally fused to EYFP (human) (UniProt P49146)
[2] = target: human Y1 receptor C-terminally fused to EYFP (human) (UniProt P25929)
[3] = target: human Y2 receptor C-terminally fused to EYFP (human) (UniProt P49146); remark: listed apart in the source

EC50, functional IP3 second messenger assay [1]: 0.5 nM
EC50, functional CRE reporter gene assay [2]: 0.77 nM
EC50, functional CRE reporter gene assay [3]: 0.87 nM
Substance: NPY (ligand)
